US20240247080A1, “GLP1/GIP/NPY2 RECEPTOR TRIPLE AGONISTS” (Boehringer Ingelheim International GmbH, priority 2022, published 2024)
Starred links: 1 amine or outer side, 2 acyl side, 3 side chain; linkers in the order of their positions; H or OH if unused. Non-standard residues stand in square brackets, D forms with d. Groups on a side chain read outwards from the residue. No end group written: not given here. *: point of attachment. C20 diacid = O=C(O)CCCCCCCCCCCCCCCCCCC(=O)*; γGlu = O=C(O)[C@H](CCC(=O)[*:2])N[*:1]; εLys = N[C@@H](CCCCN[*:1])C(=O)[*:2]; Aib = CC(C)(N)C(=O)O

T1: human GIP receptor (human, UniProt P48546 22-466)
T1 sequence (looked up): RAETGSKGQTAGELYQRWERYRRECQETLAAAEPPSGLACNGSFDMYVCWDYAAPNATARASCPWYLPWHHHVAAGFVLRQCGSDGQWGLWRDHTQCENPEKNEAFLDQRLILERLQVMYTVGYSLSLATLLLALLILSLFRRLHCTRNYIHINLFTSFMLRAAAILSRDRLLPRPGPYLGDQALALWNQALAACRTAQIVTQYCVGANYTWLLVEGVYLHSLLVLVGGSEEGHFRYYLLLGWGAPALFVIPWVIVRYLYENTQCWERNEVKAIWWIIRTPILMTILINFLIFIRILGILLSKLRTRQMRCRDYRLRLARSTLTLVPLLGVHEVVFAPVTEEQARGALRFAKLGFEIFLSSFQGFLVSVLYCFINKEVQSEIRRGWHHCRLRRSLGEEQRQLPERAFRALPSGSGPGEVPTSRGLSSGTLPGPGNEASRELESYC

T2: human neuropeptide Y2 (NPY2) receptor (human, UniProt P49146 1-381)
T2 sequence (looked up): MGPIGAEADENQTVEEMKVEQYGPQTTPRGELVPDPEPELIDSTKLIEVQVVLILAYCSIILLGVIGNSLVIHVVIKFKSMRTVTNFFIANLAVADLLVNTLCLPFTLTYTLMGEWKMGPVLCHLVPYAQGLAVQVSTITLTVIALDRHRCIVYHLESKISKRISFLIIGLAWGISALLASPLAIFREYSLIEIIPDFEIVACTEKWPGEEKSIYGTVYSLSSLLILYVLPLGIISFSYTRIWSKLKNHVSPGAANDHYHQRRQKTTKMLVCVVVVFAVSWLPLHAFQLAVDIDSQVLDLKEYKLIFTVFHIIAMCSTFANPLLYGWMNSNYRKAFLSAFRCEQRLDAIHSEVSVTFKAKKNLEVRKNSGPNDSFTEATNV

T3: GIP receptor (human (printed as hGIPR), UniProt P48546 22-466)
T3 sequence (looked up): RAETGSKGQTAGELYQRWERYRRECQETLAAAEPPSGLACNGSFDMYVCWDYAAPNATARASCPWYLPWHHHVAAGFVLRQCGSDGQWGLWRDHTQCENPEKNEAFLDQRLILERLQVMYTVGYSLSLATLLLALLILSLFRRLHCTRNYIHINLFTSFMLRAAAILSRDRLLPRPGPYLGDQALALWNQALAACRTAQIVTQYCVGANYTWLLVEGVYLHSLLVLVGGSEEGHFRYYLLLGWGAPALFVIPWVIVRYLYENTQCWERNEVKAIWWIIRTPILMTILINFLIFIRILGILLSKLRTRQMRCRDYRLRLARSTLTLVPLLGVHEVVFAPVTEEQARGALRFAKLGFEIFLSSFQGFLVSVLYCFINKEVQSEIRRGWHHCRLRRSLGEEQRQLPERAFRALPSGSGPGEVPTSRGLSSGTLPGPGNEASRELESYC

T4: NPY2 receptor (human (printed as hNPY2R), UniProt P49146 1-381)
T4 sequence (looked up): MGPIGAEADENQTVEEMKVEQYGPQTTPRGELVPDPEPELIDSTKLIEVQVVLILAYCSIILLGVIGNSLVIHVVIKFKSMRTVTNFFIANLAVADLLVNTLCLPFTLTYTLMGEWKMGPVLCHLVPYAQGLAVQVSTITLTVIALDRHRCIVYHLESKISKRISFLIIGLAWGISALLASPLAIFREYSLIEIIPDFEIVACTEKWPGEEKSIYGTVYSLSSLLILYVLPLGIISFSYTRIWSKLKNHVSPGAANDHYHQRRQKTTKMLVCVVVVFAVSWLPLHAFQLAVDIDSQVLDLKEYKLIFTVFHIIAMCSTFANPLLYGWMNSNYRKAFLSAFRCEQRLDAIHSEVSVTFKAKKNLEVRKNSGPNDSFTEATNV

B1: Compound 18 (peptide)
peptide: YXEGTFTSDYSIXLEKQAQXAFVEWLIKGGPSSGASLRHYXNRXTRQRY
modifications: Aib at 2, 13, 20, 41, 44; K28 side chain: C20DA-gGlu-gGlu-gGlu-gGlu-gGlu-gGlu-eLys; C-terminal NH2
B2: Compound 20 (peptide)
peptide: YXEGTFTSDYSIXLAAAAQXAFVEWLIKGGPSSGASLRHYYNWLTRQRY
modifications: Aib at 2, 13, 20; K28 side chain: C20DA-gGlu-gGlu-gGlu-gGlu-gGlu-gGlu-eLys; C-terminal NH2
B3: Compound 4 (peptide)
peptide: YXEGTFTSDYSIXLEKQAQXAFVEWLIKGGPSSGASXRHYXNRXTRQRY
modifications: Aib at 2, 13, 20, 37, 41, 44; K28 side chain: C20DA-gGlu-gGlu-gGlu-gGlu-gGlu-gGlu-eLys; C-terminal NH2
B4: Compound 24 (peptide)
peptide: YXEGTFTSDYSIXLEXKAQXEFVEWLIKGGPSSGASLRHYYNWLTRQRY
modifications: Aib at 2, 13, 16, 20; K28 side chain: C20DA-gGlu-gGlu-gGlu-gGlu-gGlu-gGlu-eLys; C-terminal NH2
B5: Compound 25 (peptide)
peptide: YXEGTFTSDYSIXLEAAKQXAFVEWLIKGGPSSGASLRHYYNWLTRQRY
modifications: Aib at 2, 13, 20; K28 side chain: C20DA-gGlu-gGlu-gGlu-gGlu-gGlu-gGlu-eLys; C-terminal NH2
B6: Compound 3 (peptide)
peptide: YXEGTFTSDYSIXLEKQAQXAFVQWLIKGGQRSYASLRHYYNWLTRQRY
modifications: Aib at 2, 13, 20; K28 side chain: C20DA-gGlu-gGlu-gGlu-gGlu-gGlu-gGlu-eLys; C-terminal NH2
B7: Compound 27 (peptide)
peptide: YXEGTFTSDYSIXLEKQAQXAFVEWLIKGGPSSGVSIRHYYNWLTRQRY
modifications: Aib at 2, 13, 20; K28 side chain: C20DA-gGlu-gGlu-gGlu-gGlu-gGlu-gGlu-eLys; C-terminal NH2
B8: Compound 31 (peptide)
peptide: YXEGTFTSDYSIXLEEQAQXAFVEWLIKGGPSSGQSLRHYYNWLTRQRY
modifications: Aib at 2, 13, 20; K28 side chain: C20DA-gGlu-gGlu-gGlu-gGlu-gGlu-gGlu-eLys; C-terminal NH2
B9: Compound 19 (peptide)
peptide: YXEGTFTSDYSIXLEKQAQXAFVQWLIKGGPSYYVSLRHYYNWLTRQRY
modifications: Aib at 2, 13, 20; K28 side chain: C20DA-gGlu-gGlu-gGlu-gGlu-gGlu-gGlu-eLys; C-terminal NH2
B10: Compound 21 (peptide)
peptide: YXEGTFTSDYSIXLEKQAQXAFVEWLIKGGPSSGASLRHYYNWLTRQRY
modifications: Aib at 2, 13, 20; DHis 39; DArg 46; DTyr 49; K28 side chain: C20DA-gGlu-gGlu-gGlu-gGlu-gGlu-gGlu-eLys; C-terminal NH2
B11: Compound 32 (peptide)
peptide: YXEGTFTSDYSIXLEKQAQXAFVQWLIKGGPESGASLRHYYNWLTRQRY
modifications: Aib at 2, 13, 20; K28 side chain: C20DA-gGlu-gGlu-gGlu-gGlu-gGlu-OEG-OEG; C-terminal NH2
B12: Compound 22 (peptide)
peptide: YXEGTFTSDYSIXLEKQAQXAFVQWLIKGGQSSYASLRHYYNWLTRQRY
modifications: Aib at 2, 13, 20; K28 side chain: C20DA-gGlu-gGlu-gGlu-gGlu-gGlu-Glu-eLys; C-terminal NH2
B13: Compound 29 (peptide)
peptide: YXEGTFTSDYSIXLEKQAQXAFVQWLIKGGPESGASLRHYYNWLTRQRY
modifications: Aib at 2, 13, 20; K28 side chain: C20DA-gGlu-gGlu-gGlu-gGlu-gGlu; C-terminal NH2
B14: Compound 30 (peptide)
peptide: YXEGTFTSDYSIXLEEQAQXAFVQWLIKGGPSSGASLRHYYNWLTRQRY
modifications: Aib at 2, 13, 20; K28 side chain: C20DA-gGlu-gGlu-Glu-gGlu-gGlu-gGlu-eLys; C-terminal NH2
B15: Compound 26 (peptide)
peptide: YXEGTFTSDYSIXLEKQAQXAFVEWLIKGGPSSGASXRHYYNWLTXQRY
modifications: Aib at 2, 13, 20, 37; hArg 46; DTyr 49; K28 side chain: C20DA-gGlu-gGlu-gGlu-gGlu-gGlu-gGlu-eLys; C-terminal NH2

How the values were obtained:
Experiment in all cases: cell-based or functional assay
human GLP-1 receptor = human GLP-1 receptor (human, UniProt P43220 24-463)
human GIP receptor = molecular target: T1, human GIP receptor
[1] = molecular target: T2, human neuropeptide Y2 (NPY2) receptor
GLP-1 receptor = GLP-1 receptor (human (printed as hGLP1R), UniProt P43220 24-463)
GIP receptor = molecular target: T3, GIP receptor
NPY2 receptor = molecular target: T4, NPY2 receptor

Row | Binder | EC50, CreLuc assay, 0.5% hP (human GLP-1 receptor) [nM] | EC50, CreLuc assay, 100% hP (human GLP-1 receptor) [nM] | EC50, CreLuc assay, 0.5% hP (human GIP receptor) [nM] | EC50, CreLuc assay, 100% hP (human GIP receptor) [nM] | EC50, CreLuc assay, 0.5% hP [1] [nM] | EC50, CreLuc assay, 100% hP [1] [nM] | EC50 hGLP1R 0.5% hP (CreLuc) (GLP-1 receptor) [nM] | EC50 hGLP1R 100% hP (CreLuc) (GLP-1 receptor) [nM] | EC50 hGIPR 0.5% hP (CreLuc) (GIP receptor) [nM] | EC50 hGIPR 100% hP (CreLuc) (GIP receptor) [nM] | EC50 hNPY2R 0.5% hP (CreLuc) (NPY2 receptor) [nM] | EC50 hNPY2R 100% hP (CreLuc) (NPY2 receptor) [nM]
1 | Y[Aib]EGTFTSDYSI[Aib]LEKQAQ[Aib]AFVQWLIK([εLys-Glu-γGlu-γGlu-γGlu-γGlu-C20 diacid])GGPEYYASLRHYYNWLTRQRY-NH2 (also: TFA salt) [Compound 23] | 0.47 | 37.7 | 0.56 | 11.4 | 10.1 | 72.4 | – | – | – | – | – | –
2 | B1 | 0.12 | 1.94 | 0.36 | 1.98 | 85.7 | 224 | – | – | – | – | – | –
3 | B2 | 0.87 | 24.3 | 0.93 | 7.75 | 19.1 | 62 | – | – | – | – | – | –
4 | B3 | 0.09 | 1.74 | 0.25 | 1.66 | 66.4 | 182 | – | – | – | – | – | –
5 | B4 | 1.77 | 15.3 | 4.1 | 17.7 | 26.8 | 94.5 | – | – | – | – | – | –
6 | B5 | 0.67 | 14.2 | 0.98 | 6.97 | 13 | 38.3 | – | – | – | – | – | –
7 | Y[Aib]EGTFTSDYSI[Aib]LEKQAQ[Aib]AFIEWLIKGGPSEGASLRHYYNWLTRQRY-NH2 (not fully specified (residue 28); also: TFA salt) [Compound 258] | – | – | – | – | – | – | 0.17 | 2.52 | 0.16 | 1.23 | 22.3 | 72
8 | Y[Aib]EGTFTSDYSI[Aib]LEKQAQ[Aib]EFVQWLIKGGPSSGASLRHYYNWLTRQRY-NH2 (not fully specified (residue 28); also: TFA salt) [Compound 28] | 0.22 | 6.51 | 0.38 | 3.08 | 10.3 | 46 | – | – | – | – | – | –
9 | B6 | 0.45 | 14.4 | 0.53 | 6.56 | 4.45 | 23 | – | – | – | – | – | –
10 | B7 | 0.1 | 1.97 | 0.17 | 1.11 | 7.16 | 21 | – | – | – | – | – | –
11 | B8 | 0.06 | 2.94 | 0.15 | 2.63 | 13.4 | 43.5 | – | – | – | – | – | –
12 | B9 | 0.5 | 10.2 | 0.61 | 6.5 | 9.41 | 19.3 | – | – | – | – | – | –
13 | B10 | 0.11 | 1.66 | 0.14 | 0.87 | > 99.9 | > 999 | – | – | – | – | – | –
14 | B11 | 0.07 | 4.74 | 0.16 | 1.15 | 12.2 | 49.3 | – | – | – | – | – | –
15 | B12 | 0.45 | 15.9 | 0.54 | 6.62 | 8.06 | 21.3 | – | – | – | – | – | –
16 | B13 | 0.13 | 6.74 | 0.23 | 4.08 | 8.79 | 74.5 | – | – | – | – | – | –
17 | B14 | 0.08 | 1.08 | 0.13 | 1.06 | 13.3 | 56.2 | – | – | – | – | – | –
18 | B15 | 0.07 | 1.18 | 0.09 | 0.7 | > 100 | 670 | – | – | – | – | – | –
